Experiment [1] addresses T1, Human TNFR2-His (Sino 10417-H08H) (human, UniProt P20333 23-257).
T1 construct: Bought protein; also called recombinant human TNFR2 protein; not shown: His tag
T1 sequence (looked up): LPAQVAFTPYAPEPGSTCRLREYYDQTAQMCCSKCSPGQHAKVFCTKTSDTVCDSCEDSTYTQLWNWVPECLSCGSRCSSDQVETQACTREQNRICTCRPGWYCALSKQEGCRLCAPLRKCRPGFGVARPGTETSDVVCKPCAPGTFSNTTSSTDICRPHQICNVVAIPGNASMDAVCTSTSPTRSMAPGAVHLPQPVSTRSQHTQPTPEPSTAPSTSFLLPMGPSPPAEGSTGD
Put plainly: ELISA, human TNFR2-His coated. Here is the method: (§1) The test humanized antibody against TNFR2 (as described in Example 1, the antibody was comprised of variable regions linked to IgG-Fc; the WT chimeric antibody also adopted the IgG-Fc structure) was subjected to 3.33-fold gradient dilution, loaded with 100 μl/well, and incubated with shaking at room temperature for 1.5 hours. The plate was washed, and then a working solution of murine anti-human IgG Fc-HRP (diluted at 1:10000) was added, loaded with 100 μl/well, and incubated with shaking at room temperature for 1.0 hour. The plate was washed again, and then the substrate TMB of HRP was added to develop colour. A stop solution was added to stop the reaction, and then a microplate reader (MD 13) was used to read the absorbance value. The binding curve of an antibody was drawn with antibody concentration as the abscissa and corresponding OD value as the ordinate, and fitted with four parameters (GraphPad Prism9) to calculate the EC50 value. The smaller the EC50 value, the stronger the binding ability of an antibody to human/cynomolgus monkey TNFR2. The binding effect of a humanized antibody was normalized to its corresponding human-murine chimeric antibody WT (see SEQ ID NOs: 38-43 for the sequence). The higher the percentage value, the better the binding effect of the humanized antibody. The results of binding of an anti-TNFR2 antibody to a human TNFR2 protein are shown in FIG. 1 and Table 4, and the results of binding of an anti-TNFR2 antibody to cynomolgus monkey TNFR2 are shown in FIG. 2 and Table 4.

For experiment [2], the target named is T2, Cynomolgus TNFR2-His (Sino 90102-C08H) (cynomolgus monkey, UniProt A0A2K5VET2 132-366).
T2 construct: Bought protein; also called cynomolgus monkey TNFR2; recombinant cynomolgus monkey TNFR2 protein; not shown: His tag
T2 sequence: T1 sequence (looked up) with S16G, S36P, P117Q, N164H, E210A, S216G, M223V
The experiment in a line: ELISA, cynomolgus TNFR2-His coated. As to the method:
as §1

Experiment [3] addresses T3, human TNFR2 on the surface of CHO-TNFR2 cells (human, UniProt P20333 23-461).
T3 construct: whole, on cells
T3 sequence (looked up): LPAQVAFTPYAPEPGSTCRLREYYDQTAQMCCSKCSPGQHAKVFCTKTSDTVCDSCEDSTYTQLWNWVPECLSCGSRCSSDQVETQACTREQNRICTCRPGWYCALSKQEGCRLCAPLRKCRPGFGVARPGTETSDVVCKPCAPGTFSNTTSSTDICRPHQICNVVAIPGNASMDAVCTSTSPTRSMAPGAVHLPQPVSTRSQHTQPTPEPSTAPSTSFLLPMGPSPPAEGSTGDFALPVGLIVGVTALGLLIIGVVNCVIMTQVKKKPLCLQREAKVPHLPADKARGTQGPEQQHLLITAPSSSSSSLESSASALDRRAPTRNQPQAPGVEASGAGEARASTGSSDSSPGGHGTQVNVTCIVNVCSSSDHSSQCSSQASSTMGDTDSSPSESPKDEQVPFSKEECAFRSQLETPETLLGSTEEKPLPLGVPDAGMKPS
Put plainly: flow cytometry on CHO-TNFR2 cells; area under the MFI fold curve. Here is the method: The transfected full-length plasmid of human TNFR2 was purchased from Sino Biological (Cat #HG10417-UT, NCBI Ref Seq: NM_001066.2). The experiment was conducted at a cell density within 80%. The cell medium was discarded; the cells were rinsed with PBS, and digested with 1 ml trypsin for 2 minutes; the digestion was stopped with a Ham's F12 complete medium containing 10% FBS, and then a cell suspension was made. The cell suspension was counted, and then an appropriate amount of cell suspension was centrifuged at 350×g; the supernatant was discarded; a corresponding volume of blocking solution (10% FBS+PBS) at a density of 1×10⁷ cells/ml was added to resuspend the cells, and the mixture was incubated at 4° C. for 30 minutes. After the incubation, the mixture was centrifuged at 350×g to remove the supernatant, and the cells were resuspended in a staining buffer (2% FBS+PBS) to a density of 2×10⁶ cells/ml, and spread onto a 96-well plate, with 50 μl of cell suspension added to each well for later use. The antibody was diluted with PBS for 10-fold gradient dilution from the highest concentration of 20 μg/m (twice the concentration); the diluted antibody was added to the well containing 50 μl of cell suspension, and placed on a microplate shaker for shaking at 500 rpm for 1 minute, so that the antibody was fully mixed with the cells; the mixture was incubated at 4° C. for 1 h. After the incubation, the cells were washed twice with the staining buffer, with 100 μl per well, and centrifuged at 350-g for 5 minutes, and the supernatant was discarded. The PE goat anti-Human IgG Fc antibody (ebioscience, Cat #12-4998-82) was diluted 250-fold with the staining buffer, with a volume of 100 μl per well added to the washed cell wells; the mixture was mixed evenly, and stained at 4° C. for 30 minutes. After the staining, similarly, the cells were washed twice with the staining buffer; finally, the cells were resuspended in 200 μl of staining buffer; signals were detected by a flow cytometer (Thermo Attune NxT). The stronger the signal, the stronger the binding ability of an antibody to TNFR2. The binding curve of an antibody was drawn with antibody concentration as the abscissa and corresponding mean fluorescence intensity (MFI) fold as the ordinate, and fitted with four parameters (GraphPad Prism9) to calculate the EC50 value.

The target of experiment [4] is T1, Human TNFR2-His (Sino 10417-H08H). Put plainly: ELISA, human TNFR2-His coated; EC50 against 224-WT. Here is the method:
as §1

Changes are numbered by the printed parent chain.

B1: 224-Hu7 (antibody, V domains shown)
VH: QVQLVQSGSELKKPGASVKVSCKASGFNNKDIYMHWVRQAPGQGLEWMGRIDPATGNTKHDPKFQDKAVLSSDTSVSTAYLQISSLKAEDTAVYYCARSPYGDFGAMDYWGQGTLVTVSS
VL: DIQMTQSPSSLSASVGDRVTITCTASSSVSSNYLHWYQQKPGKAPKLLIYSTSNLPSGVPSRFSGSGSGTDFTLTISSLQPEDFATYYCHQYHRSPWTFGQGTKVEIK
notes: Humanized form of #224; also called VH9 + VL10
On to B1, for which the concentration for a half-maximal effect (EC50) in experiment [1] stood at 9.6 ng/mL; in experiment [2], 8.39 ng/mL. This molecule also yielded an AUC in experiment [3] of 608. For the same molecule, the “% Relative activity (WT antibody/test antibody)” value in experiment [4] was determined as 110%.

B2: 224-Hu2 (antibody, V domains shown)
VH: B1 VH
VL: B1 VL with K43S, A44S, L48W
notes: Humanized form of #224; also called VH9 + VL7
Turning to B2, the EC50 in experiment [1] came out at 10.8 ng/mL; in experiment [2] it was 9.62 ng/mL. The AUC in experiment [3] was 672. For the same molecule, in experiment [4], the “% Relative activity (WT antibody/test antibody)” value was found to be 138%.

B3: 224-Hu3 (antibody, V domains shown)
VH: B1 VH
VL: B1 VL with P81A, F84A
notes: Humanized form of #224; also called VH9 + VL8
Take B3: the EC50 in experiment [1] came to 12.2 ng/mL; in experiment [2], 9.69 ng/mL. The AUC in experiment [3] worked out at 675. Besides, the “% Relative activity (WT antibody/test antibody)” value in experiment [4] stood at 122%.

B4: 224-Hu4 (antibody, V domains shown)
VH: B1 VH
VL: B1 VL with L48W
notes: Humanized form of #224; also called VH9 + VL6
With B4, the EC50 in experiment [1] was determined as 10.7 ng/mL; in experiment [2], 9.56 ng/mL. This molecule also yielded an AUC in experiment [3] of 621. Besides, the “% Relative activity (WT antibody/test antibody)” value in experiment [4] is 108%.

B5: 224-Hu5 (antibody, V domains shown)
VH: B1 VH
VL: B1 VL with F72Y, T73S
notes: Humanized form of #224; also called VH9 + VL9
On to B5, for which the values for the 50% effective concentration (EC50) in experiment [1] and in experiment [2] were 11.6 ng/mL and 9.69 ng/mL, respectively. Moreover, in experiment [3], the AUC amounted to 593. In addition, the “% Relative activity (WT antibody/test antibody)” value in experiment [4] stood at 99.4%.

For the origin of these results see US20240109974A1 (SHANDONG SIMCERE BIOPHARMACEUTICAL, published 2024).
